# Target: RNF111 (Arkadia) (UniProt Q6ZNA4)
# Test: proximity ligation assay (PLA)
# Settings: ARKL1 KO U2OS cells complemented with HA-ARKL1WT (n = 28), HA-ARKL1SIM* (n = 20) or vector (n = 17); antibodies against HA and RNF111; parent: est. 9.0; read off a plot
# UniProt Q6ZNA4, sequence (Q6ZNA4 whole entry): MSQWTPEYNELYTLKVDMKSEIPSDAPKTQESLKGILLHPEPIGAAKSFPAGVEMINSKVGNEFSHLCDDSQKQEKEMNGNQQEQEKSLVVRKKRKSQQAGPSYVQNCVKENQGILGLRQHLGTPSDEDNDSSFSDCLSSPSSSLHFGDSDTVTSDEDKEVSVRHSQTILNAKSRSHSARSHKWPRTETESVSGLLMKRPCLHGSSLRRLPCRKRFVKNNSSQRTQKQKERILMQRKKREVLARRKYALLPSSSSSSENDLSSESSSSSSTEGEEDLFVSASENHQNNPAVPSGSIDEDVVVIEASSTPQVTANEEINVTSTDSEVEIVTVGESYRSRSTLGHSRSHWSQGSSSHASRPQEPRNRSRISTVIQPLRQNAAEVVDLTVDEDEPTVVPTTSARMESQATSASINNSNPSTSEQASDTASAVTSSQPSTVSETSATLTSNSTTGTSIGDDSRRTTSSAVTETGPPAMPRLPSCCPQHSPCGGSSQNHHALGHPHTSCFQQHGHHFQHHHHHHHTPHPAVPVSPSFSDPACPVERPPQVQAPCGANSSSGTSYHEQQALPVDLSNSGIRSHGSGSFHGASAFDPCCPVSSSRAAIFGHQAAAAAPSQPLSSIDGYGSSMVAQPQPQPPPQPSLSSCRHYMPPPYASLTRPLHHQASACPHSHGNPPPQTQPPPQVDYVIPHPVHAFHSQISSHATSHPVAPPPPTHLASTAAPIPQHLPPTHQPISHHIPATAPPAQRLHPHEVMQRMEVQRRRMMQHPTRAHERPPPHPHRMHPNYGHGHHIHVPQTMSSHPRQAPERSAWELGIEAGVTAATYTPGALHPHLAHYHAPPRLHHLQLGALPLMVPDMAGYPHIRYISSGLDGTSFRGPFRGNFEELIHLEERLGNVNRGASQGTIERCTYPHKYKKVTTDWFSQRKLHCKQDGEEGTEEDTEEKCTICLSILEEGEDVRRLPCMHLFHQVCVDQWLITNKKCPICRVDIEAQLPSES
substance,measurement,value
HA-ARKL1 wild type (from UniProt Q96B23) SIM*,response (PLA foci per cell),1

# Reference: publication PMC10542384
